Data published in US20230272390A1, “COMPOSITIONS AND METHODS FOR HEMOGLOBIN PRODUCTION” (THE CHILDREN'S HOSPITAL OF PHILADELPHIA, priority 2020, published 2023).

Tested on: negative control oligo (shares 7/17 bp with the consensus motif)
Test: Fluorescence polarization DNA binding assay, negative control oligo
Conditions: same conditions
Procedure: The fragment of Human ZNF410 (NP_001229855.1) comprising of five zinc finger domains ZF1-5 (residues 217-366) was cloned into pGEX-6P-1 vector with a GST fusion tag (pXC2180). The plasmid was transformed into Escherichia coli strain BL21-Codon-plus(DE3)-RIL (Stratagene). Bacteria was grown in LB broth in a shaker at 37° C. until reaching the log phase (A600 nm between 0.4 and 0.5), the shaker temperature was then set to 16° C. and 25 μM ZnCl2 was added to the cell culture. When the shaker temperature reached 16° C. and A600 nm reached ˜0.8, the protein expression was induced by the addition of 0.2 mM isopropyl-3-D-thiogalactopyranoside with subsequent growth for 20 hours at 16° C. […]
Fluorescence polarization (FP) method was used to measure the binding affinity using a Synergy™ 4 Microplate Reader (BioTek). […]
To further gain insight into the molecular basis of how the ZNF410 tandem ZF domain recognizes its targeting DNA sequence, crystallization of the ZNF410-DNA complex was performed. The binding affinity of the ZNF410 ZF domain (ZF1-5) with the consensus motif was quantified by fluorescence polarization using purified GST fusion protein (Patel, et al. (2016) Methods Enzymol., 573:387-401). […]

B1: ZF1-5: fragment of human ZNF410 comprising five zinc finger domains ZF1-5 (residues 217-366); dominant-negative when overexpressed (protein)
chain: KKLKCTVEGCDRTFVWPAHFKYHLKTHRNDRSFICPAEGCGKSFYVLQRLKVHMRTHNGEKPFMCHESGCGKQFTTAGNLKNHRRIHTGEKPFLCEAQGCGRSFAEYSSLRKHLVVHSGEKPHQCQVCGKTFSQSGSRNVHMRKHHLQLG
modifications: left off: small tags and cut ends
notes: fragment of human ZNF410 comprising five zinc finger domains ZF1-5 (residues 217-366); dominant-negative when overexpressed
B1 was tested, and the “binding to the negative control oligo” value was “no measurable binding”.
